From PMC8386928 (Science Advances, 2021) come the findings set out here.

This assay concerns the target biotinylated PepT2 (C-terminal Avi tag) (Rattus norvegicus, UniProt Q63424, biotin (on the Avi tag, by BirA)). Put plainly: BLI.

Chain of biotinylated PepT2 (C-terminal Avi tag) (Q63424 whole entry): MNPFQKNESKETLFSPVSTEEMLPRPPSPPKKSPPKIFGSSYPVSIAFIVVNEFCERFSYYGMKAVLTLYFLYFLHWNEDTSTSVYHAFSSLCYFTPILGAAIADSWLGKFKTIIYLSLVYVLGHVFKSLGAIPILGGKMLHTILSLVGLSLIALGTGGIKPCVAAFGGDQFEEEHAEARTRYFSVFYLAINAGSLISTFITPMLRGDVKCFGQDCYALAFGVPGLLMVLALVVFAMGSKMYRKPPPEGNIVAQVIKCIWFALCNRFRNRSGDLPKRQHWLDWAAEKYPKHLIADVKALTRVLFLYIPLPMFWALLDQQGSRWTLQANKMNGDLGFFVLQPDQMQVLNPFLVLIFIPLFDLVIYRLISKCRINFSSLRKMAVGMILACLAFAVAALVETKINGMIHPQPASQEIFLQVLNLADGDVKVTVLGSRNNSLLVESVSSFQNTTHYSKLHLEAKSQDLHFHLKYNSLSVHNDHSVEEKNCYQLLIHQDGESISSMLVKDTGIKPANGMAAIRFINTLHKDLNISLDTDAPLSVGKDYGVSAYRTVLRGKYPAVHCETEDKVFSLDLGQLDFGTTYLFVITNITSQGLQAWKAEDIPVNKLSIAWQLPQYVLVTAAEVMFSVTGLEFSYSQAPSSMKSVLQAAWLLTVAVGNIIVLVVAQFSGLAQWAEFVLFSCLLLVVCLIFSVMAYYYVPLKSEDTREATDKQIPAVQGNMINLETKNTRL

B1: nanobody D8 (VHH)
VHH: QVQLVESGGGLVQPGGSLRLLCVASGRPFNDYDMGWFRQAPGKEREFVASISWSGRVTDYSDSMKGRCTVSRDNAKGTMFLQMSNLVPRDTAVYYCAAARRRWTFKATNTEEFYETWGQGTQVTVSS
B1 gave a Kd of roughly 25 nM.
